Our source for the Kd values is article PMC13649712 (2026).

Where two headings read alike, the source gives them in different places.

For test [1], the target named is T1, mouse PER1 1013-1291 R1111A (mouse, UniProt O35973 1013-1291, R1111A). As to the kind of experiment: ITC.
The target in test [2] is T1, mouse PER1 1013-1291 R1111A. As to the kind of experiment: ITC. The source holds these as a separate data set.

B1: mouse CRY1 1-496 (PHR) (domain or fragment)
chain: MGVNAVHWFRKGLRLHDNPALKECIQGADTIRCVYILDPWFAGSSNVGINRWRFLLQCLEDLDANLRKLNSRLFVIRGQPADVFPRLFKEWNITKLSIEYDSEPFGKERDAAIKKLATEAGVEVIVRISHTLYDLDKIIELNGGQPPLTYKRFQTLVSKMEPLEMPADTITSDVIGKCMTPLSDDHDEKYGVPSLEELGFDTDGLSSAVWPGGETEALTRLERHLERKAWVANFERPRMNANSLLASPTGLSPYLRFGCLSCRLFYFKLTDLYKKVKKNSSPPLSLYGQLLWREFFYTAATNNPRFDKMEGNPICVQIPWDKNPEALAKWAEGRTGFPWIDAIMTQLRQEGWIHHLARHAVACFLTRGDLWISWEEGMKVFEELLLDADWSINAGSWMWLSCSSFFQQFFHCYCPVGFGRRTDPNGDYIRRYLPVLRGFPAKYIYDPWNAPEGIQKVAKCLIGVNYPKPMVNHAEASRLNIERMKQIYQQLSRYRG
One may read the Kd as the constant that tells how readily two partners part at equilibrium. Low values mean a tighter complex, high ones a looser complex. As for B1, the dissociation constant (Kd) was 9.8 nM in test [1] and 10 nM in test [2].
